Km data for 1 substance are collected here from paper PMC8543862, “Characterization of a highly xylose tolerant β-xylosidase isolated from high temperature horse manure compost” (BMC Biotechnology, 2021).

This data set relates to O=[N+]([O-])c1ccc(O[C@@H]2OC[C@@H](O)[C@H](O)[C@H]2O)cc1. In words: purified protein. It is filed as biochemical, uncultured bacterium. The note with it: 50 mM sodium phosphate pH 6, 37 °C, 20 min, 1-20 mM substrate, kcat unit not given.

Broadly, the Km is the substrate concentration at which the rate is half of its maximum. In the case of XylP81 (uncultured bacterium), the Michaelis-Menten constant (Km) is 5.3 mM.
